Data on 33 molecules can be found in publication PMC12416549 (2024).

For this test, the target named is T1, TNFR1 (Homo sapiens, UniProt P19438).
T1 chain: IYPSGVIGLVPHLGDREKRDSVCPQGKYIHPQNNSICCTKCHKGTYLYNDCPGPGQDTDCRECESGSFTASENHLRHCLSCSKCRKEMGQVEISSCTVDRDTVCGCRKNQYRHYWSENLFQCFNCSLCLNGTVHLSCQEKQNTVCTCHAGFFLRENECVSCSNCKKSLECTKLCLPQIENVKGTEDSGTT
Put plainly: yeast display SC50.

B1: E89T (designed binder)
chain: SMEEEVEKAAKEYEKKKKEAIEKHLEKLKAKDKEAAERFLKELEEAAKEYAKDEAKTMSEEEAKRRAKKYKEKVLLSELSEEEQKEIKTAEEKLVRTILKYVEEAAK
In the case of B1, the “apparent Kd (screen)” value was found to be 2.25 nM.

B2: K73Q (designed binder)
chain: SMEEEVEKAAKEYEKKKKEAIEKHLEKLKAKDKEAAERFLKELEEAAKEYAKDEAKTMSEEEAKRRAKKYKEQVLLSELSEEEQKEIKEAEEKLVRTILKYVEEAAK
Turning to B2, the “apparent Kd (screen)” value was 1.05 nM.

B3: D32K (designed binder)
chain: SMEEEVEKAAKEYEKKKKEAIEKHLEKLKAKKKEAAERFLKELEEAAKEYAKDEAKTMSEEEAKRRAKKYKEKVLLSELSEEEQKEIKEAEEKLVRTILKYVEEAAK
Take B3: the “apparent Kd (screen)” value worked out at 1.05 nM.

B4: E19W (designed binder)
chain: SMEEEVEKAAKEYEKKKKWAIEKHLEKLKAKDKEAAERFLKELEEAAKEYAKDEAKTMSEEEAKRRAKKYKEKVLLSELSEEEQKEIKEAEEKLVRTILKYVEEAAK
In the case of B4, the “apparent Kd (screen)” value amounted to 0.539 nM.

B5: T57W (designed binder)
chain: SMEEEVEKAAKEYEKKKKEAIEKHLEKLKAKDKEAAERFLKELEEAAKEYAKDEAKWMSEEEAKRRAKKYKEKVLLSELSEEEQKEIKEAEEKLVRTILKYVEEAAK
As for B5, the “apparent Kd (screen)” value worked out at 0.304 nM.

B6: A46G (designed binder)
chain: SMEEEVEKAAKEYEKKKKEAIEKHLEKLKAKDKEAAERFLKELEEGAKEYAKDEAKTMSEEEAKRRAKKYKEKVLLSELSEEEQKEIKEAEEKLVRTILKYVEEAAK
On to B6, for which the “apparent Kd (screen)” value was determined as 0.49 nM.

B7: S1T (designed binder)
chain: TMEEEVEKAAKEYEKKKKEAIEKHLEKLKAKDKEAAERFLKELEEAAKEYAKDEAKTMSEEEAKRRAKKYKEKVLLSELSEEEQKEIKEAEEKLVRTILKYVEEAAK
With B7, the “apparent Kd (screen)” value is 0.49 nM.

B8: E91L (designed binder)
chain: SMEEEVEKAAKEYEKKKKEAIEKHLEKLKAKDKEAAERFLKELEEAAKEYAKDEAKTMSEEEAKRRAKKYKEKVLLSELSEEEQKEIKEALEKLVRTILKYVEEAAK
As to B8, the “apparent Kd (screen)” value was determined as 13.8 nM.

B9: A36C (designed binder)
chain: SMEEEVEKAAKEYEKKKKEAIEKHLEKLKAKDKEACERFLKELEEAAKEYAKDEAKTMSEEEAKRRAKKYKEKVLLSELSEEEQKEIKEAEEKLVRTILKYVEEAAK
B9: the “apparent Kd (screen)” value worked out at 0.79 nM.

B10: E60R (designed binder)
chain: SMEEEVEKAAKEYEKKKKEAIEKHLEKLKAKDKEAAERFLKELEEAAKEYAKDEAKTMSREEAKRRAKKYKEKVLLSELSEEEQKEIKEAEEKLVRTILKYVEEAAK
As to B10, the “apparent Kd (screen)” value was found to be 1.16 nM.

B11: E44R (designed binder)
chain: SMEEEVEKAAKEYEKKKKEAIEKHLEKLKAKDKEAAERFLKELREAAKEYAKDEAKTMSEEEAKRRAKKYKEKVLLSELSEEEQKEIKEAEEKLVRTILKYVEEAAK
In the case of B11, the “apparent Kd (screen)” value came to 0.593 nM.

B12: V6A (designed binder)
chain: SMEEEAEKAAKEYEKKKKEAIEKHLEKLKAKDKEAAERFLKELEEAAKEYAKDEAKTMSEEEAKRRAKKYKEKVLLSELSEEEQKEIKEAEEKLVRTILKYVEEAAK
As to B12, the “apparent Kd (screen)” value is 0.539 nM.

B13: V95P (designed binder)
chain: SMEEEVEKAAKEYEKKKKEAIEKHLEKLKAKDKEAAERFLKELEEAAKEYAKDEAKTMSEEEAKRRAKKYKEKVLLSELSEEEQKEIKEAEEKLPRTILKYVEEAAK
As to B13, the “apparent Kd (screen)” value is 5.31 nM.

B14: E82G (designed binder)
chain: SMEEEVEKAAKEYEKKKKEAIEKHLEKLKAKDKEAAERFLKELEEAAKEYAKDEAKTMSEEEAKRRAKKYKEKVLLSELSEGEQKEIKEAEEKLVRTILKYVEEAAK
Regarding B14, the “apparent Kd (screen)” value is 0.446 nM.

B15: R66L (designed binder)
chain: SMEEEVEKAAKEYEKKKKEAIEKHLEKLKAKDKEAAERFLKELEEAAKEYAKDEAKTMSEEEAKRLAKKYKEKVLLSELSEEEQKEIKEAEEKLVRTILKYVEEAAK
As to B15, the “apparent Kd (screen)” value turned out to be 18.3 nM.

B16: V95A (designed binder)
chain: SMEEEVEKAAKEYEKKKKEAIEKHLEKLKAKDKEAAERFLKELEEAAKEYAKDEAKTMSEEEAKRRAKKYKEKVLLSELSEEEQKEIKEAEEKLARTILKYVEEAAK
Take B16: the “apparent Kd (screen)” value came to 6.43 nM.

B17: I98Q (designed binder)
chain: SMEEEVEKAAKEYEKKKKEAIEKHLEKLKAKDKEAAERFLKELEEAAKEYAKDEAKTMSEEEAKRRAKKYKEKVLLSELSEEEQKEIKEAEEKLVRTQLKYVEEAAK
For B17, the “apparent Kd (screen)” value is 0.0498 nM.

B18: E61A (designed binder)
chain: SMEEEVEKAAKEYEKKKKEAIEKHLEKLKAKDKEAAERFLKELEEAAKEYAKDEAKTMSEAEAKRRAKKYKEKVLLSELSEEEQKEIKEAEEKLVRTILKYVEEAAK
On to B18, for which the “apparent Kd (screen)” value was 1.27 nM.

B19: M2E (designed binder)
chain: SEEEEVEKAAKEYEKKKKEAIEKHLEKLKAKDKEAAERFLKELEEAAKEYAKDEAKTMSEEEAKRRAKKYKEKVLLSELSEEEQKEIKEAEEKLVRTILKYVEEAAK
As for B19, the “apparent Kd (screen)” value is 0.956 nM.

B20: E45N (designed binder)
chain: SMEEEVEKAAKEYEKKKKEAIEKHLEKLKAKDKEAAERFLKELENAAKEYAKDEAKTMSEEEAKRRAKKYKEKVLLSELSEEEQKEIKEAEEKLVRTILKYVEEAAK
Regarding B20, the “apparent Kd (screen)” value was determined as 2.48 nM.

B21: K8Q (designed binder)
chain: SMEEEVEQAAKEYEKKKKEAIEKHLEKLKAKDKEAAERFLKELEEAAKEYAKDEAKTMSEEEAKRRAKKYKEKVLLSELSEEEQKEIKEAEEKLVRTILKYVEEAAK
As for B21, the “apparent Kd (screen)” value was 0.956 nM.

B22: I87W (designed binder)
chain: SMEEEVEKAAKEYEKKKKEAIEKHLEKLKAKDKEAAERFLKELEEAAKEYAKDEAKTMSEEEAKRRAKKYKEKVLLSELSEEEQKEWKEAEEKLVRTILKYVEEAAK
B22: the “apparent Kd (screen)” value came out at 12.5 nM.

B23: K100C (designed binder)
chain: SMEEEVEKAAKEYEKKKKEAIEKHLEKLKAKDKEAAERFLKELEEAAKEYAKDEAKTMSEEEAKRRAKKYKEKVLLSELSEEEQKEIKEAEEKLVRTILCYVEEAAK
Turning to B23, the “apparent Kd (screen)” value was found to be 3 nM.

B24: T97H (designed binder)
chain: SMEEEVEKAAKEYEKKKKEAIEKHLEKLKAKDKEAAERFLKELEEAAKEYAKDEAKTMSEEEAKRRAKKYKEKVLLSELSEEEQKEIKEAEEKLVRHILKYVEEAAK
In the case of B24, the “apparent Kd (screen)” value came out at 0.653 nM.

B25: D53R (designed binder)
chain: SMEEEVEKAAKEYEKKKKEAIEKHLEKLKAKDKEAAERFLKELEEAAKEYAKREAKTMSEEEAKRRAKKYKEKVLLSELSEEEQKEIKEAEEKLVRTILKYVEEAAK
Turning to B25, the “apparent Kd (screen)” value amounted to 2.73 nM.

B26: K11E (designed binder)
chain: SMEEEVEKAAEEYEKKKKEAIEKHLEKLKAKDKEAAERFLKELEEAAKEYAKDEAKTMSEEEAKRRAKKYKEKVLLSELSEEEQKEIKEAEEKLVRTILKYVEEAAK
Turning to B26, the “apparent Kd (screen)” value amounted to 0.446 nM.

B27: A10H (designed binder)
chain: SMEEEVEKAHKEYEKKKKEAIEKHLEKLKAKDKEAAERFLKELEEAAKEYAKDEAKTMSEEEAKRRAKKYKEKVLLSELSEEEQKEIKEAEEKLVRTILKYVEEAAK
On to B27, for which the “apparent Kd (screen)” value worked out at 3.3 nM.

B28: K85P (designed binder)
chain: SMEEEVEKAAKEYEKKKKEAIEKHLEKLKAKDKEAAERFLKELEEAAKEYAKDEAKTMSEEEAKRRAKKYKEKVLLSELSEEEQPEIKEAEEKLVRTILKYVEEAAK
B28: the “apparent Kd (screen)” value was determined as 18.3 nM.

B29: K16Y (designed binder)
chain: SMEEEVEKAAKEYEKYKKEAIEKHLEKLKAKDKEAAERFLKELEEAAKEYAKDEAKTMSEEEAKRRAKKYKEKVLLSELSEEEQKEIKEAEEKLVRTILKYVEEAAK
As for B29, the “apparent Kd (screen)” value amounted to 0.446 nM.

B30: A9S (designed binder)
chain: SMEEEVEKSAKEYEKKKKEAIEKHLEKLKAKDKEAAERFLKELEEAAKEYAKDEAKTMSEEEAKRRAKKYKEKVLLSELSEEEQKEIKEAEEKLVRTILKYVEEAAK
For the molecule B30, the “apparent Kd (screen)” value was 0.49 nM.

B31: K69S (designed binder)
chain: SMEEEVEKAAKEYEKKKKEAIEKHLEKLKAKDKEAAERFLKELEEAAKEYAKDEAKTMSEEEAKRRAKSYKEKVLLSELSEEEQKEIKEAEEKLVRTILKYVEEAAK
On to B31, for which the “apparent Kd (screen)” value turned out to be 0.446 nM.

B32: L43T (designed binder)
chain: SMEEEVEKAAKEYEKKKKEAIEKHLEKLKAKDKEAAERFLKETEEAAKEYAKDEAKTMSEEEAKRRAKKYKEKVLLSELSEEEQKEIKEAEEKLVRTILKYVEEAAK
B32: the “apparent Kd (screen)” value was found to be 0.49 nM.

B33: E12R (designed binder)
chain: SMEEEVEKAAKRYEKKKKEAIEKHLEKLKAKDKEAAERFLKELEEAAKEYAKDEAKTMSEEEAKRRAKKYKEKVLLSELSEEEQKEIKEAEEKLVRTILKYVEEAAK
Turning to B33, the “apparent Kd (screen)” value stood at 0.539 nM.
